The text below walks through data of PMC12742838, “Discovery and structural investigation of Varicella-Zoster virus gE-neutralizing antibodies isolated from a convalescent patient” (Protein & Cell, 2025).

In test [1] the target is T1, Varicella-zoster virus glycoprotein E (gE), recombinant protein, tag not told for these experiments (Varicella-zoster virus, UniProt P09259).
T1 construct: glycoprotein E (gE) of Varicella-zoster virus; Methods are in the Supplementary Materials; also called gE protein
The test is described as follows: cryo-EM structure; ternary complex Fab WLL-1/Fab WLL-28/gE, resolved at 3.36 Å; only the gI-binding domain of gE is seen. To be noted: both partners purified.

The target in test [2] is T2, recombinant soluble insulin-degrading enzyme (rIDE, residues 42-1,019) (UniProt P14735 42-1019).
T2 construct: insulin-degrading enzyme (IDE), cellular receptor of VZV gE, residues 42-1,019; Tags and host are probably in the Supplementary Materials; also called rIDE receptor protein; source: recombinant, purified
The test is described as follows: SPR; dissociation constant of gE to rIDE. The following applies: both partners purified.

B1: Fab WLL-28 (Fab, V domains shown)
VH: EVQLVQSGAEVKKPGEPLKISCKASGYNFANFWVGWVRQMPGRGLEWMGVIFPADSDTRYSPSFQGQVIISADKSTNTAYLQWSSLKASDSAMYYCARHVRGSLWGGGGYWGQGTLVTVSS
VL: EIVMTQSPSTLSVSPGEGATLSCRASQSVNNDLAWYQQKPGQAPRLLINGASTRATGIPARFTGSGSGTEFTLTISSLQPEDFAVYFCQQYNDWPRTFGQGTKVEIK
As for B1, in test [1], the binding result is given as “binds”.

B2: Fab WLL-1 (Fab, V domains shown)
VH: QITLKESGPTLVKPTQTLTLTCTFSGFSLTNTEMTVGWIRRPPGKALEWLALIYWDDDKRYSPSLRSRLTITKDTSKNQVVLKMTNMDPVDTATYYCARLSLRLLTFDYWGQGTLVTVSS
VL: SYVVTQPPSVSVAPRQTARITCGGSNIGSKSVHWHQQKPGQAPVLVVYDDSDRPSGIPERFSGSNSGNTATLTITRVEAGDEADYYCQVWDSSGDHPLFGGGTKLTVL
Consider B2, for which the binding result in test [1] is “binds”.

B3: Varicella-zoster virus glycoprotein E (gE), recombinant protein, tag not told for these experiments (natural protein)
chain: SVLRYDDFHTDEDKLDTNSVYEPYYHSDHAESSWVNRGESSRKAYDHNSPYIWPRNDYDGFLENAHEHHGVYNQGRGIDSGERLMQPTQMSAQEDLGDDTGIHVIPTLNGDDRHKIVNVDQRQYGDVFKGDLNPKPQGQRLIEVSVEENHPFTLRAPIQRIYGVRYTETWSFLPSLTCTGDAAPAIQHICLKHTTCFQDVVVDVDCAENTKEDQLAEISYRFQGKKEADQPWIVVNTSTLFDELELDPPEIEPGVLKVLRTEKQYLGVYIWNMRGSDGTSTYATFLVTWKGDEKTRNPTPAVTPQPRGAEFHMWNYHSHVFSVGDTFSLAMHLQYKIHEAPFDLLLEWLYVPIDPTCQPMRLYSTCLYHPNAPQCLSHMNSGCTFTSPHLAQRVASTVYQNCEHADNYTAYCLGISHMEPSFGLILHDGGTTLKFVDTPESLSGLYVFVVYFNGHVEAVAYTVVSTVDHFVNAIEERGFPPTAGQPPATTKPKEITPVNPGTSPLLR
notes: glycoprotein E (gE) of Varicella-zoster virus; Methods are in the Supplementary Materials; also called gE protein
On to B3, for which the Kd in test [2] is about 0.01 µM.
